Measured values as given in article doi:10.1101/2020.08.04.235895, “Analysis of Structure and function by the LysR-Type Transcriptional Regulator CbbR of Nostoc sp. PCC 7120”.

Columns and labels:
CbbR_7120 [1] = target: T1, CbbR_7120 (Nostoc sp. PCC 7120, UniProt Q8YQ82 1-337); assay: competition EMSA; competitor vs FAM-DNA; EMSA: 5X buffer 100 mM HEPES pH 7.6, 5 mM EDTA, 50 mM (NH4)2SO4, 5 mM DTT, 1% Tween 20, 150 mM KCl (2.5 uL per reaction, volume printed as 10 mL); 15 min on ice; 6% TBE-PAGE on ice; conditions: protein: recombinant; tags: N-terminal 6xHis; chain copies: 4; blunt
T1 sequence: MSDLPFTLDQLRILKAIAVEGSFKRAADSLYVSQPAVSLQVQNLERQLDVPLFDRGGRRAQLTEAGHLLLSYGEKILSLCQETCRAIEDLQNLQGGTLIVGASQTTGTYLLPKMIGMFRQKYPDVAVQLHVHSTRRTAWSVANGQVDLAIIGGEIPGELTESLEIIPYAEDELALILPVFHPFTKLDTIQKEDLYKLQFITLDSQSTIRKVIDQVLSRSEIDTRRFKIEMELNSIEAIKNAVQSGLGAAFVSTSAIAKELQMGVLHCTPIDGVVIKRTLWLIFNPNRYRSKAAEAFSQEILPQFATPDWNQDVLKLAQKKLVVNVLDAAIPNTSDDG

CbbR_7120 [2] = target: T1, CbbR_7120; assay: EMSA; EMSA: 5X buffer 100 mM HEPES pH 7.6, 5 mM EDTA, 50 mM (NH4)2SO4, 5 mM DTT, 1% Tween 20, 150 mM KCl (2.5 uL per reaction, volume printed as 10 mL); 15 min on ice; 6% TBE-PAGE on ice; conditions: protein: recombinant; tags: N-terminal 6xHis; chain copies: 4; label: 5'-FAM on forward strand; blunt
CbbR_7120 [3] = target: T1, CbbR_7120; assay: competition EMSA; competitor vs FAM-DNA; EMSA: 5X buffer 100 mM HEPES pH 7.6, 5 mM EDTA, 50 mM (NH4)2SO4, 5 mM DTT, 1% Tween 20, 150 mM KCl (2.5 uL per reaction, volume printed as 10 mL); 15 min on ice; 6% TBE-PAGE on ice; conditions: protein: recombinant; tags: N-terminal 6xHis; chain copies: 4; blunt; remark: listed apart in the source
CbbR_7120 [4] = target: T1, CbbR_7120; assay: as above; conditions: protein: recombinant; tags: N-terminal 6xHis; chain copies: 4; blunt; remark: listed apart in the source
CbbR_7120 [5] = target: T1, CbbR_7120; assay: competition EMSA; competitor vs FAM-DNA; no significant change in free FAM-DNA; EMSA: 5X buffer 100 mM HEPES pH 7.6, 5 mM EDTA, 50 mM (NH4)2SO4, 5 mM DTT, 1% Tween 20, 150 mM KCl (2.5 uL per reaction, volume printed as 10 mL); 15 min on ice; 6% TBE-PAGE on ice; conditions: protein: recombinant; tags: N-terminal 6xHis; chain copies: 4; blunt

B1: BOX 3 (dsDNA)
DNA 1: TTATGCCATTTCTTGATAT
DNA 2: ATATCAAGAAATGGCATAA
binding signal (CbbR_7120 [1]): ~1000 competitor:FAM-DNA ratio for complete competition

B2: FAM-DNA (rbcLXS promoter probe) (dsDNA)
DNA 1: TAATAACAAATTTAAATATGTAAGTTAAGAACTTTCAAAGAATAACTTATGCCATTTCTTGATAT
DNA 2: ATATCAAGAAATGGCATAAGTTATTCTTTGAAAGTTCTTAACTTACATATTTAAATTTGTTATTA
binding result (CbbR_7120 [2]): binds

B3: BOX1OP1 (dsDNA)
DNA 1: TGTAATAACAAATTTAAATATGTCATATAACAAATTTAAATATGT
DNA 2: ACATATTTAAATTTGTTATATGACATATTTAAATTTGTTATTACA
binding signal (CbbR_7120 [3]): ~10 competitor:FAM-DNA ratio for complete competition

B4: BOX 1 (dsDNA)
DNA 1: TAATAACAAATTTAAATAT
DNA 2: ATATTTAAATTTGTTATTA
binding signal (CbbR_7120 [4]): ~400 competitor:FAM-DNA ratio for complete competition

B5: BOX 2 (dsDNA)
DNA 1: AGTTAAGAACTTTCAAAGA
DNA 2: TCTTTGAAAGTTCTTAACT
binding result (CbbR_7120 [5]): no binding
